Experimental data published in patent US20240425603A1 (Janssen / Centocor, published 2024).
Several values for one entry are separate records, joined by “and”; a condition that tells them apart may be missing. Equal entries are not always repeated.

B1: VGFB54 (antibody, human IgG1, lambda, L234A L235A, V domains shown)
VH: EVQLLESGGGSVQPGGSLRLSCTASGFNFEDYGMNWVRQAPGKGLDWVSSINRNGDISTYHVDSVKGRFTISRDNSKNTLYLQMNSLRAEDTAIYYCTKNHDYHGMDVWGQGTTVTVSS
VL: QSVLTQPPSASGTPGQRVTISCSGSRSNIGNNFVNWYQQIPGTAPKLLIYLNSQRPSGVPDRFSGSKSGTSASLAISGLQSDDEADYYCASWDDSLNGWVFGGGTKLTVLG
notes: human IgG1 (L234A/L235A/D265S), lambda, 2H:2L; from OmniChicken
B2: VGFB82 (antibody, human IgG1, lambda, L234A L235A, V domains shown)
VH: EVQLLESGGGLVQPGGSLRLSCEASGFDFSTYAMNWVRQAPGKGLEWVATINSEGTITSHAPAVKGRFTISRDNSKNTAYVQMNSLRAEDSAVYYCSSTTGTTHGMDVWGRGTTVTVSS
VL: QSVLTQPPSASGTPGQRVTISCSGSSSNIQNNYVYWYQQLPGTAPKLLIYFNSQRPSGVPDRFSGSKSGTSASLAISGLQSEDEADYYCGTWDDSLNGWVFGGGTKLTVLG
notes: human IgG1 (L234A/L235A/D265S)
B3: VGFB78 (antibody, human IgG1, lambda, L234A L235A, V domains shown)
VH: EVQLLESGGGLVQPGGSLRLSCAASSFTFYNYDMTWVRQAPGKGLEWVAGIGTSGTDMYYADSVKGRFTISRDNSKNTLYLQMNSLRAEDTAIYYCAKDYYYYGMDVWGLGTTVTVSS
VL: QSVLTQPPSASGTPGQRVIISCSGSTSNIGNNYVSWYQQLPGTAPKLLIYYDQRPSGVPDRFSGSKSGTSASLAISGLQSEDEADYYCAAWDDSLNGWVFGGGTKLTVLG
notes: as for B2
B4: VGFB71 (antibody, human IgG1, lambda, L234A L235A, V domains shown)
VH: EVQLLESGGGLVQPGGSLRLSCEASGFIFRDYNMNWVRQAPGKGLEWVSIITNDGSSTAYSDSVKGRFTISRDNSKNSLYLQMNSLRAEDTAIYYCVKVYYGMDDWGQGTTVTVSS
VL: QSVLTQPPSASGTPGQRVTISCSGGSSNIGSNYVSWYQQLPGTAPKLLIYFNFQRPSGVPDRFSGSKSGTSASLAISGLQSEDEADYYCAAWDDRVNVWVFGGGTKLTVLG
notes: as for B2

Key:
[1] = molecular target: T1, mouse VEGFR1 (soluble antigen of the KinExA and SPR affinity assays) (mouse, UniProt P35969 23-759, limits assumed); assay: SPR
T1 sequence (looked up): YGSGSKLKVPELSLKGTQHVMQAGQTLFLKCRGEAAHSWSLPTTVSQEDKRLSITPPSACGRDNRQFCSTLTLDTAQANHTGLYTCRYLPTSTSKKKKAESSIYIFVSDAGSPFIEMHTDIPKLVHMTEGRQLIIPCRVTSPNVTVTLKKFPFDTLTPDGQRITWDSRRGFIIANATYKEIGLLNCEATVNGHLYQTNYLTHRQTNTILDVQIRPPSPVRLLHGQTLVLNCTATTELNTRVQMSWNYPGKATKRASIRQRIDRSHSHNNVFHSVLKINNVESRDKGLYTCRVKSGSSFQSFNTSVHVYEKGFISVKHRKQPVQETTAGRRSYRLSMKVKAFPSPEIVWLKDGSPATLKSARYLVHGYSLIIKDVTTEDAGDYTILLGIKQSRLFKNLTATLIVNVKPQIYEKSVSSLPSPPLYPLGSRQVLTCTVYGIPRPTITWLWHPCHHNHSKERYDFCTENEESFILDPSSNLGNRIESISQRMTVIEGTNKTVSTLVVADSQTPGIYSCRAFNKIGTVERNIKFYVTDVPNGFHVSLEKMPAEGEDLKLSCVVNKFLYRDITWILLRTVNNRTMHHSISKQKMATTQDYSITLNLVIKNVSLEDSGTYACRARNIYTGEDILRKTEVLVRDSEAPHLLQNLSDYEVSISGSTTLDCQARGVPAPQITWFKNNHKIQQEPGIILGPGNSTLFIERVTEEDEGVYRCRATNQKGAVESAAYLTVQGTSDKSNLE

[2] = molecular target: His tagged cyno VEGFR1 (cynomolgus monkey, UniProt A0A2K5VAF2 27-758); assay: MSD ECL competition on plate-bound His-tagged cyno VEGFR1; competitor biotin human PlGF (2 nM)
Procedure, shortened: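 MSD 384 plates were coated with Protein A/G or anti-His mAb, blocked with Blocker A, and used to capture human or mouse VEGFR1-Fc or His-tagged cyno VEGFR1 at 0.5 ug/ml for 1 hour at room temperature. Antibody in half-log dilutions was pre-incubated for 30 minutes, after which biotinylated VEGFA (0.2 nM) or PlGF (2 nM) was added. Bound ligand was detected with Sulfo-tagged streptavidin on an MSD SECTOR S 600 imager, and IC50 and maximal percent inhibition were derived from the electro-chemiluminescence signal.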

[3] = molecular target: T2, human VEGFR1, full length, over-expressed on cells (human, UniProt P17948 27-1338); assay: flow cytometry, CHO-K1 cells stably expressing human VEGFR1
T2 construct: on CHO-K1 or HEK cells; also called hVEGFR1; CHOK1/ human VEGFR1
Protocol: Full dose-response curves for binding of anti-VEGFR1 antibodies to VEGFR1 on cells were also generated. Parental CHO-K1 cells and CHO-K1 cells stably expressing human VEGFR1 (CHO-K1\hVEGFR1) were cultured in aMEM+10% FBS and aMEM+10% FBS containing 10 μg/mL Puromycin, respectively. CHOK1\hVEGFR1 were stained with CSFE as described above and parental CHO-K1 cells were left unstained. Cells were washed, combined (˜0.5×10⁶ cells/mL), and plated at ˜40,000 cells per well (75 μL/well). Serially diluted antibody samples were then added to the cells and incubated for 1 hour at 37° C. Cells were washed twice with stain buffer and then stained with AF647-conjugated secondary antibody for 30 min at 4° C. Plated cells were washed twice followed by the addition of read buffer containing Sytox Blue (1:1000) and read on an iQue flow cytometer. Data was fit to obtain EC₅₀ values (Table 22).

[4] = molecular target: T3, cynomolgus monkey VEGFR1, over-expressed on HEK293 cells (cynomolgus monkey); assay: flow cytometry, 10 nM antibody, HEK cells over-expressing cyno VEGFR1
T3 construct: whole, on cells; also called HEK/ cyno VEGFR1; cynoVEGFR1
Protocol: Parental CHO-K1 cells, CHO-K1 cells stably expressing human VEGFR1, Ba/F3 parental, and Ba/F3 cells stably expressing murine VEGFR1 were stained for 10 minutes at 4° C. with either no stain, CSFE, CTV, or CTV+CSFE, respectively. Cells were subsequently washed with media containing heat inactivated FBS, collected by centrifugation, combined, resuspended in stain buffer, and plated (95 μL/well; 200,000 of each cell type per well). Antibody samples were added ([…]) to a final concentration of 10 nM and incubated for 60 min at 4° C. protected from light. Cells were washed twice with 150 μL/well stain buffer. AlexaFluor647-conjugated anti-human IgG1 secondary antibody was added (100 μL/well) and incubated for 30 minutes at 4° C. protected from light. Cells were washed twice with 150 μL of stain buffer, ultimately resuspended in 30 μL of running buffer and read on an iQue flow cytometer. This single concentration assay was used as a quick confirmation of binding to human and mouse VEGFR1 on cells. A similar assay was performed to confirm binding of candidate antibodies to HEK293 cells stably over-expressing cyno VEGFR1 at a single concentration of 10 nM.

[5] = molecular target: T4, human VEGFR3, over-expressed on K562 cells (human, UniProt P35916 25-1363); assay: flow cytometry, 10 nM antibody, K562 cells over-expressing human VEGFR3
T4 construct: whole, on cells; also called huVEGFR3; hVEGFR3

[6] = molecular target: T5, human VEGFR2, over-expressed on HEK293 cells (human, UniProt P35968 20-1356); assay: FACS cell binding (MFI) on HEK cells over-expressing human VEGFR2; expanded clone supernatant per paragraph 492, concentration not given
T5 construct: whole, on cells; also called huVEGFR2; hVEGFR2
Procedure, shortened: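 Flow cytometry was used to measure binding of culture supernatants to HEK cells over-expressing mouse VEGFR1 or human VEGFR2 and to K562 cells over-expressing human VEGFR3. The supernatants came from chicken-derived clones expressed as scFv-Fc (human IgG1) by transient transfection and expanded to 6-well plates (2 mL). Binding is reported as mean fluorescence intensity.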

[7] = molecular target: T5, human VEGFR2, over-expressed on HEK293 …; assay: flow cytometry, 10 nM antibody, HEK cells over-expressing human VEGFR2

T4 sequence (P35916 25-1363): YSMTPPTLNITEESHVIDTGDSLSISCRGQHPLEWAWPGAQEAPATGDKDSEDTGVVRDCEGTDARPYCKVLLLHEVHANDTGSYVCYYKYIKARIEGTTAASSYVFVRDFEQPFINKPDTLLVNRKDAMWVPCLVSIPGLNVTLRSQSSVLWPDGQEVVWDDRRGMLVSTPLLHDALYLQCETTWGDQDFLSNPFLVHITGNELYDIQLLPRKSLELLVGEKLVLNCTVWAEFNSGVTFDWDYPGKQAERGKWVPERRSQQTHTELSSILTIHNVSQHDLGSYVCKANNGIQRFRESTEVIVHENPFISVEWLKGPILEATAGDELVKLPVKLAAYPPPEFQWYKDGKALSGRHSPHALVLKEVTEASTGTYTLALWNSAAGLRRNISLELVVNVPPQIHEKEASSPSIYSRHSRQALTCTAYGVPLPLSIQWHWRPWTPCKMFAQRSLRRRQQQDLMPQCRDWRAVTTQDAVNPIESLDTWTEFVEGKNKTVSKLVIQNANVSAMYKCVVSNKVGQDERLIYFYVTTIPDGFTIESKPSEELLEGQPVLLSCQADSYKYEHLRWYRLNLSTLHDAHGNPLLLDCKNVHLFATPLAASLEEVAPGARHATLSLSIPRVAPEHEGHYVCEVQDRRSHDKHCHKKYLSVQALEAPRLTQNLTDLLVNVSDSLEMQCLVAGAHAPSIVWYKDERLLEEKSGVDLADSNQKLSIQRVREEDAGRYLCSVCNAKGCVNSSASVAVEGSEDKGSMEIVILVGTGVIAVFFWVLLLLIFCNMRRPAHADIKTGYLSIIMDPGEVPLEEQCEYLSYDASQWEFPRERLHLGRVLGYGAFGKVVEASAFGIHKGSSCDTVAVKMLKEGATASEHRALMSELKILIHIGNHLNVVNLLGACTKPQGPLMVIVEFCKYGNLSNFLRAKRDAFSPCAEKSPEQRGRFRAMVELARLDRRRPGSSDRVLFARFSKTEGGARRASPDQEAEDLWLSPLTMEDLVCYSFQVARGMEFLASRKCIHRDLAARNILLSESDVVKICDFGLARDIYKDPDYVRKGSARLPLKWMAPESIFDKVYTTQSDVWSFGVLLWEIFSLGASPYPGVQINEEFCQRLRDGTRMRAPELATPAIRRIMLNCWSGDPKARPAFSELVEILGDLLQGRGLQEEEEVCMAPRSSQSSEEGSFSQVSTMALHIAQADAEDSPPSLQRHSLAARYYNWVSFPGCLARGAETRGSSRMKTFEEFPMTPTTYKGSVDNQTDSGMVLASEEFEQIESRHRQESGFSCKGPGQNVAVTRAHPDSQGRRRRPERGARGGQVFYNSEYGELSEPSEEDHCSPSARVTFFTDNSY
T5 sequence (P35968 20-1356): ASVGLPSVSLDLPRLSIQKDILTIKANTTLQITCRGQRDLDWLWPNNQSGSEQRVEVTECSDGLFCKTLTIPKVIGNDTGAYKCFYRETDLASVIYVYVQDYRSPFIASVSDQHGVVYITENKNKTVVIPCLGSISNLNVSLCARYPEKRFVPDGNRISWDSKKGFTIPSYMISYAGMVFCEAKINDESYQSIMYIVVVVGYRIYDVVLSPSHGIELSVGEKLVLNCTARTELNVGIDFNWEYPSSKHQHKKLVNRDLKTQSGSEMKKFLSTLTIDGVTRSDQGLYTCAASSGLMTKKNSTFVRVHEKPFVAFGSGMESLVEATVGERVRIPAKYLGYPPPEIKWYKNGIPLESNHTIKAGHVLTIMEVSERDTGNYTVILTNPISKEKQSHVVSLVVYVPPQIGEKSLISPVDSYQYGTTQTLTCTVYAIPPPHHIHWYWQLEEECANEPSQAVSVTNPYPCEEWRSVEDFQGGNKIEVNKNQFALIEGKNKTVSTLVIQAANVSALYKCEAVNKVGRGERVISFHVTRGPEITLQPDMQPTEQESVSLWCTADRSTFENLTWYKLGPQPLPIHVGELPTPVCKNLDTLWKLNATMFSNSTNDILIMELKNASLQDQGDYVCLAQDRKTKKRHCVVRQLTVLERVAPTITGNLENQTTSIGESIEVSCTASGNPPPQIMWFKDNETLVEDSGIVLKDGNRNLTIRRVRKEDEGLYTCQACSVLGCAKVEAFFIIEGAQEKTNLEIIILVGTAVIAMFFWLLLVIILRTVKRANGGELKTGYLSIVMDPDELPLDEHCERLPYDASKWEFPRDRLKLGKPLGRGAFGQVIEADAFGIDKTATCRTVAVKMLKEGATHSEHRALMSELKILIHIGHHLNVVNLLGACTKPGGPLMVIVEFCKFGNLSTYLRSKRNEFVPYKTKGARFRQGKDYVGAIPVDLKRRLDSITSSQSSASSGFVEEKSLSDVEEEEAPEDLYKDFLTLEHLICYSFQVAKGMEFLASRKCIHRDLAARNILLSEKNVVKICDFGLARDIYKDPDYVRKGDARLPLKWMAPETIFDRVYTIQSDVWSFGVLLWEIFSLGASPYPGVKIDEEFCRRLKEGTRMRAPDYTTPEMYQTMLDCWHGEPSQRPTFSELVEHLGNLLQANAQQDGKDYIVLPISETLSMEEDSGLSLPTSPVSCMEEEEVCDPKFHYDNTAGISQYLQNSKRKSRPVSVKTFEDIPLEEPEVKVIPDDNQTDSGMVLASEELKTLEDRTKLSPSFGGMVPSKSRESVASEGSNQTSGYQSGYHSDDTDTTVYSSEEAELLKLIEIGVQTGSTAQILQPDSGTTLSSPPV
T2 sequence (P17948 27-1338 limits assumed): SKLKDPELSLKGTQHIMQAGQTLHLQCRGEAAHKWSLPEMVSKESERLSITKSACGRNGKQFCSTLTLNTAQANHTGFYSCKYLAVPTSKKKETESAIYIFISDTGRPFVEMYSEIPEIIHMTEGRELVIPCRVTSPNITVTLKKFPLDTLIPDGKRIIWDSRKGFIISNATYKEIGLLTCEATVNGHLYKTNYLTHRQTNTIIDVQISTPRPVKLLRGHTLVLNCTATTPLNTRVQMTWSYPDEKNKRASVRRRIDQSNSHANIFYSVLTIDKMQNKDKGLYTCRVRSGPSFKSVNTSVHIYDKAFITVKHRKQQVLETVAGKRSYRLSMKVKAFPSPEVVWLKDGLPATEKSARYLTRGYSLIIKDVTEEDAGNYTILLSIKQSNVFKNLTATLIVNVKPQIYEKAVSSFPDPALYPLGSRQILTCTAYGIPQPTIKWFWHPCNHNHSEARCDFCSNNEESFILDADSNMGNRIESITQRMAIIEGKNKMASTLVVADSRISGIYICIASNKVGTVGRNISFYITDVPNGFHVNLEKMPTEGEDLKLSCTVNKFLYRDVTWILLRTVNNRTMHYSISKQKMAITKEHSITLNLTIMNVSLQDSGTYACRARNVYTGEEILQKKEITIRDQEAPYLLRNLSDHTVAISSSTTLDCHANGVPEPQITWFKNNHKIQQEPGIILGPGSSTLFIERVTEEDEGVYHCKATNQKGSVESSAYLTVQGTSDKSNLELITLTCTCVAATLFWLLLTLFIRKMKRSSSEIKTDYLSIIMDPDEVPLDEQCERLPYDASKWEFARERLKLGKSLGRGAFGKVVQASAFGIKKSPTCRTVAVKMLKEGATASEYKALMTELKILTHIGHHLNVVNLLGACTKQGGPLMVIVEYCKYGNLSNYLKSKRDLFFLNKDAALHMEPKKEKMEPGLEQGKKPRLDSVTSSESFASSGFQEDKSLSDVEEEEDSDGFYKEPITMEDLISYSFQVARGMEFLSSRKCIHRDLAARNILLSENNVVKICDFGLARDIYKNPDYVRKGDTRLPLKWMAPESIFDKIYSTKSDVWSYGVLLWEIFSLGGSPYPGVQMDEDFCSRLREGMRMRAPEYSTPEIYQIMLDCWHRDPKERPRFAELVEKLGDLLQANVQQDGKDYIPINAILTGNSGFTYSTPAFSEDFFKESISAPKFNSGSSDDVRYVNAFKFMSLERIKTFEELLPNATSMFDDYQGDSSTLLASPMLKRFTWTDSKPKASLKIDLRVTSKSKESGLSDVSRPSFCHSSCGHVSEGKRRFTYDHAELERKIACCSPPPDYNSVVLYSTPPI

Binder | Kd [1] | IC50 [2] | Max % Inh. [2] | EC50 [3] | Geomean over-expressing/Geomean parental (Fold Signal/Background) [4] | Geomean over-expressing/Geomean parental (Fold Signal/Background) [5] | binding result [6] | Geomean over-expressing/Geomean parental (Fold Signal/Background) [7]
B1 | 5.3 nM | 0.078 nM | 100% | 0.101 nM | 4.4 fold | 0.97 fold | no binding | 1.52 fold
B2 | 0.01 nM | 0.091 nM | 100% | 0.136 nM | 3.3 fold | 1.01 fold | no binding | 1.34 fold
B3 | 0.004 nM and < 0.006 nM | 0.177 nM | 100% | 0.473 nM | 4.46 fold | 0.99 fold | no binding | 1.75 fold
B4 | – | – | – | 0.11 nM | 3.8 fold | 0.98 fold | – | 1.27 fold
